Measured values reported in US11180560B2, “Compositions and methods to treat solid tumors” (Wayne State University, priority 2015, dated 2021).

Experiments:
[1] = system: sensitive EOC cell lines, their Taxotere or Cisplatin resistant counterparts and colon, endometrial, lung, prostate, bladder, hepatocellular cancer cell lines; experiment: TACS MTT cell viability, Abciximab in cancer versus non-cancer cells; type: cell-based, human; conditions: increasing doses of Abciximab; cancer cells compared to non-cancer cells; FIG. 1A
Source text: FIGS. 1A-1E. Anti-cancer effects of Abciximab and NIF. (FIG. 1A) Anti-cancer effects of Abciximab in sensitive EOC cell lines (A2780, MDAH-2774, SKOV-3, OV90, TOV21G, OV112D, OV433, and HTB-161) and their Taxotere or Cisplatin resistant counterparts, human macrophages, and other cancer cell lines including colon (HTB-37), endometrial (CRL-1671), lung (CCL-257), prostate (CRL-1740), bladder (HTB-4), and hepatocellular (HB-8065) cancers, in vitro. (FIG. 1B) The combined effect of Abciximab alone or in combination with Cisplatin in both sensitive A2780 and their (FIG. 1C) Cisplatin resistant counterpart in vitro. […] (FIG. 1E) Anti-cancer effects of NIF in both sensitive A2780 and their Cisplatin resistant counterpart in vitro.
Cell viability was determined using the TACS MTT Cell Proliferation Assay (Trevigen, Gaithersburg, Md.) per the manufacturer's protocol. Briefly, measurement of cell proliferation is based upon the reduction of the tetrazolium salt, 3,[4,5-dimethytthiazol-2-yl]-2,5-diphenyl-tetrazolium bromide (MTT). MTT is reduced to an insoluble formazan dye by mitochondrial enzymes associated with metabolic activity of living cells. […] Absorbance was measured at 570 nm. […] A standard curve was constructed utilizing the OD readings correlating with each standard point and was utilized to determine cell number in the test samples. […]

[2] = system: A2780 sensitive and cisplatin resistant EOC cells; experiment: TACS MTT cell viability in A2780 cells; type: cell-based, human; conditions: Abciximab combined with cisplatin, CI<1 indicates synergism, FIGS. 1B-1D
Description: FIGS. 3A-3E. Cell viability in A2780 sensitive and cisplatin resistant EOC cells after treatment with integrin αV and integrin β1 antibody. (FIG. 3A) A2780 chemosensitive and (FIG. 3B) cisplatin resistant EOC cells were treated with or without integrin αV and integrin β1 antibody alone or in combination and viability was assessed using the TACS MTT Cell Proliferation Assay.
FIGS. 4A and 4B. Integrin αV and integrin β1 antibodies cross-react with a potential soluble target in EOC cell media. To test whether media collected from A2780 EOC cells contains a target that cross-reacts with the integrin αV or integrin β1 monoclonal antibodies, cells were cultured for 48 hours followed by removal of media. Either mouse anti-integrin αV or mouse anti-integrin β1 antibody was incubated with the conditioned cell culture media for 24 hours to block the antibody with the unknown target. […]
Cell viability was determined using the TACS MTT Cell Proliferation Assay (Trevigen, Gaithersburg, Md.) per the manufacturer's protocol. […] Absorbance was measured at 570 nm. […] A standard curve was constructed utilizing the OD readings correlating with each standard point and was utilized to determine cell number in the test samples.
Cell Viability was Determined Using the TACS MTT Cell Proliferation Assay (Trevigen, Gaithersburg, Md.) per the manufacturer's protocol. […]

B1: Abciximab (antibody, chains of the INN, looked up, V domains shown)
VH: EVQLQQSGTVLARPGASVKMSCEASGYTFTNYWMHWVKQRPGQGLEWIGAIYPGNSDTSYIQKFKGKAKLTAVTSTTSVYMELSSLTNEDSAVYYCTLYDGYYVFAYWGQGTLVTVSA
VL: EIVLTQSPVTLSVTPGDSVSLSCRASRDISNNLHWFQQTSHESPRLLIKYASQSMSGIPSRFSGSGSGTDFTLSINSVETEDFGMYFCQQTNSWPYTFGGGTKLEIK
modifications: Fab
- anti-cancer activity (cell viability) [1]: significant
- effect of combination with cisplatin [2]: synergistic effect
